Assay results: the DeepSol protein solubility set

test: soluble on expression in E. coli; label from the status in PepcDB or PDB records

Sequence	soluble on expression in E. coli
MSLNTGINCPFDCGLCARHRSHTNLLNIVLTNRCNLSCWYCFFYAREGEPVYEPTLEQIRMMLRNAKKENPIGANAVQFTGGEPTLRDDLIEIIKIAKEEGYDHVQLNTDGIRLAFEPELVKKIREAGVNTLYLSYDGMTPQTNWKNHWEIPLIFENVRKAGGPGIVLVPTLIRNVNDHEAGAIINFGLNHLDIVRGVNFQPISLVGRVPKKERQRFRITIAGAIKKIEEQTNGAISRDDWYPIPIAGYIARFFEAFTGKHYYMTSHYACGAATYVFLDKEEKKVIPIPRFIDVEGFVEFLVEKAEEIERARFKGLAKLKAIGETVFIKFKQFYDEKYAPKGLDVLGLIKNAFMHGNYDALGQFHTKTLFLGMMHFMDEYNYDVERVERCVIHYAMPDGRIVPFCTFNVIPEIYRDKVQRQFSYSWEEWKKLHPDWDYKKDKYFRTREFVEKMKNSELYRKTYIDIVNYFEEGHHHHHH	soluble
MGSDKIHHHHHHMSETEDSIVGIKDKELKMIRKILNRYEMKLVDIKKIRSIYKIKTENSTVCLKKVSHEFKKVENGNYLVRELKKNNFNNIADYISTKDGKLIVFYKNLAFYLTEWVDGEECNLNDINEAINASKLLAKFHLATQNINFHKIKLKNNNSKNWVEIFAKCLRDMESFKSIIQNKRIKNKFDFMYEDLIESYYNRGLFSIKILNESSYFKIIKGSNNKKTVCHNSFYYQNIIKGKKDYYIIHLNSIIIDLPITDLCKMIRTLMTKKEYMWNFEKAKQIIQAYNSVNKLSKDEMEVMLALIAFPHKFWKLGKKRYVRHKNWSENKYINKLNKIVLNNKCEQSFIEEYISYLDDIKEFTNFN	not soluble
MKKESQVIFDKNVIEFVTVAAEFCAFLERAESMKRSTFVDTTLKILPLLYLKASMLPKCEMIGDESPETYVTEEIYEVLRINLASILAEKDDYLEVFLPDMAYSDEPIKKNISEDLADIYQDIKDFIFVFQLGLNETMNDSLAICQENFGLLWGQKLVNTMRALHDVKYSPKARLEHHHHHH	soluble
MSASSSSALPPLVPALYRWKSTGSSGRQVQRRCVGAEAIVGLEEKNRRALYDLYIATSLRNIAPASTLLTLQNLKEMFELALLDARFEHPECACTVSWDDEVPAIITYESPESNESARDWARGCIHVQPTAKSALDLWSEMEEGRAAANDNTPSKSIELFLLSDVSTDSTPIPQDATVEILFHSNHLFWDGIGCRKFVGDLFRLVGSYIGRSDSREMKKIQWGQEIKNLSPPVVDSLKLDINTLGSEFDDKCTEYTSALVANYKSRGMKFQPGLALPRCVIHKLSADESIDIVKAVKTRLGPGFTISHLTQAAIVLALLDHLKPNDLSDDEVFISPTSVDGRRWLREDIASNFYAMCQTAAVVRIENLKSITVSHKDEKELQVRALESACRNIKKSYRQWLENPFLQALGLRVHNFEASYLHAKPIPFEGEANPLFISDGINERFIPHEIKQTATGENVLSVESIDFVVNQSLPYLAIRLDSWRDASTLNIIYNDANYTEAEVQKYLQSIVEFMLAFRL	soluble
RTVRQTPKQSERYVVVLSLDGFRPDYTDRARTPALDRMAQEGLSGSLQPCFPSLTFPNHYSMATGLYPDHHGIVANEFVDSLLGIFRISDRKAVETPGFWGGEPVWNTAARQGIRTGVYFWVGSETAVNGNRPWRWKKFSSTVPFRDRADSVIAWLGLPEKERPRLLMWYIEEPDMIGHSQTPESPLTLAMVERLDSVVGYFRKRLDSLPIAAQTDFIIVSDHGMATYENEKCVNLSH	not soluble
MGSDKIHHHHHHMDFSDEKMPFLADAVDRVRVEECFRQCLVIAQNFRVQNIRVIRHKLGRRCLIEYELMDDVGEIITLIGKVRAKGTDFHSYELQKSLWESGFADDSADGISVPEPVGIIPEWQMWLQRRVEGVTATQILSQTNGIFPAKLIAEAAYKLHQANIIPRRSHRMSDELRILHERIPLVMEQYPQWQRRLERILLASDDLGANTPELKLCGIHRDFYPDQVIMNNSRLYLLDLDLYCAGNPAVDIGNFIAHLQEYSLRTVGNPQALQEYEDILKTRFLQLTGDEFSLAIQAYTILTLVRHIYISTLFPERRPFTAALLHLCEQRLNITHNS	not soluble
AMSNNKIKRKDASPEQEAIESFTSLTKCDPKVSRKYLQRNHWNINYALNDYYDKEIGTFTDEVSTVAHPPVYPKELTQVFEHYINNNLFDIDSLVKFIEELGYNLEDLATLCLAHLLGYKKLEEPLKREDFLSTWFMQGCSTISDMQECIKTLDVKLHEDLQYFTQIYNYAFNLILDPNRKDIDTDEGIQYWKLFFQPEYPVRMEPDLLEAWFRFLRDEGKTTISKDTWRMLLLFFKRYPTIQKIISDYDETAAWPFIIDEFYECLQDQQ	soluble
MSLQLRLALNQIDSTVGDIAGNAEAILRWTRHSAEQGAHLVAFPEMALTGYPVEDLALRSSFVEASRTALRELAARLAEEGFGELPVLVGYLDRSESAQPKYGQPAGAPRNAAAVLHRGRVALTFAKHHLPNYGVFDEFRYFVPGDTMPIVRLHGVDIALAICEDLWQDGGRVPAARSAGAGLLLSVNASPYERDKDDTRLELVRKRAQEAGCTTAYLAMIGGQDELVFDGDSIVVDRDGEVVARAPQFSEGCVVLDLDLPAAEAEPPTGVVDDGLRIDRLVISEEPLPAYEAELAGGYADRLDADEEVYSALVVGLRAYVAKNGFRSVLIGLSGGIDSALVAAIACDALGAQNVYGVSMPSKYSSDHSKGDAAELARRTGLNFRTVSIEPMFDAYMASLGLTGLAEENLQSRLRGTTLMAISNQEGHIVLAPGNKSELAVGYSTLYGDSVGAYGPIKDVYKTSIFRLAEWRNRAAAERGQTPPIPEASITKPPSAELRPGQVDTDSLPDYPVLDAILELYVDRDTGADAIVAAGYDRELVVKTLRMVDTAEYKRRQYPPGTKISAKGFGKDRRLPITNRWREGHHHHHH	soluble
MGSDKIHHHHHHMVNKNLYTLLVCLLLAGCDLIDYHPYDVRISGETDVNAHNIEQIEAKCKGKTTIRFITMGDSQRWYDETEDFVKEVNKRDDIDFVIHGGDMSDFGLTKEFLWQRDIMNGLKVPYVVLIGNHDCLGTGAETYQAVFGPTNFSFIAGNVKFVCLNTNALEYDYSEPIPNFGFMEQELTDRADEFEKTVVSMHAHPFADVFNDNVAKPFQYYITQYPGLQFCTAAHNHGFDDRILFDDDVHYIVSDCMKSRSYLVFTITPEKYEYELVEY	not soluble
MSSSLLASLSRLSLLQTRQIHQTIPAGSSVFMKRQKKIDPEVAKQRETRRRKRLEKDIRQMQKHSKKPKPVDELTLDVKSAKNIGERRRPRTELTLEQIDERAIALKDYTRSRLALQQEDDAWIRGAIESQRKALNELKMLKLELYEAAVQPAAKDLPLIVQGPSLTPPIRNYEAPDGDYIDTTRNWAS	not soluble
MGSDKIHHHHHHLEYVIEMLNIRKEFGSFVANDNITLQLRKGEIHALLGENGAGKSTLMNVLFGLYQPEAGEIRVRGEKVNITSPNVANDLGIGMVHQHFMLVQNFTVTENIILGAEPKAGLKIDRAAAREKVRQISEQYGLAVDPDAKIEDISVGMQQRVEILKTLYRGADILIFDEPSAVLTPQEIKELIQIMNRLIAEGKSIILITHKLKEIMEVADRCTTIRRGKYIGTVDIDETMTQSRLAEMMVGREVNFNAEYSKATPQELVLDIKDLVVKDSRGIKAVDGLNLDIRAGEIVGIAGIDGNGQTELIEAITGLRKADSGEIFLNNKSIKNLKPRKVTEAGVGHIPQDRHKHGLVLDYSIGHNMVLQTYYQKPYSKAGIMNYGQVMDKAKTLIEKFDVRTPSPETFARALSGGNQQKAIIAREVDRSPDLLIAAQPTRGLDVGAIEFIHEQLVLEREKGRAVLLISFELEEILQVSDRIAVLYEGRTVAFLDPKETNEIELGFLMAGGKKEEVGRS	not soluble
MPHFNFDYQEFLMMVQHLKRRPLSRYLKDFKHSQTHCAHCRKLLDRITLVRDGKIVNKIEISRLDTLLDEKGWQTEQQSWAALCRFCGDLHCKTQSDFFDIIGFKKFLFEQTEMSPGTVREYVVRLRRLGNHLHEQNISLDQLQDGFLDEILAPWLPTTSTNNYRIALRKYQHYQRQTCTGLVQKSSSLPASDIY	not soluble
MGSDKIHHHHHHMRIFLVGMMGSGKSTIGKRISEVLDLQFIDMDEEIERREGRSVRRIFEEDGEEYFRLKEKELLKELVERDNVVVATGGGVVVDPENRELLKKEKTLFLYAPPEVLMERVTTENRPLLSEGKERIREIWEKRKQFYAEFRRIDTSRLNEWETTALVVLEALDEKEISTIEKPHLVKIILGGFKRVRNEELVFTTERVEKIYGRYLPENRLLFPDGEEVKTLEHVSRAYYELIRMDFPRGKTIAGVGGGALTDFTGFVASTFKRGVGLSFYPTTLLAQVDASVGGKNAIDFAGVKNVVGTFRMPDYVIIDPTVTLSMDEGRFEEGVVEAFKMTILSGRGVELFDEPEKIEKRNLRVLSEMVKISVEEKARIVMEDPYDMGLRHALNLGHTLGHVYEMLEGVPHGIAVAWGIEKETMYLYRKGIVPKETMRWIVEKVKQIVPIPVPSVDVEKARNLILNDKKILKGSRVRLPYVKEIGKIEFLEVDPLELLEVVD	not soluble
MGSDKIHHHHHHMSRQEQTPLFSGVVAHAKHNPVQFHIPGHKKGAGMDPAFRSFIGDNALSIDLINIGPLDDLHHPHGIIKEAQELAAEAFGADHTFFSVQGTSGAIMTMIMSVVGPGEKIIVPRNVHKSIMSAIVFSGATPVFIHPEIDPLLGISHGITIEAVEKALDAHPDAKGLLVINPTYFGIAANLKKIVELCHSRDVPVLVDEAHGVHIHFHEALPLSAMQAGADMAATSVHKLGGSLTQSSILNVREGLVSAKRVQTIISMLTTTSTSYLLLASLDAARKHLATNGRDLIGYTIQLADQARDQINAIDGLYCVGKEILGTIATYDYDPTKLIISVKNLGITGYDAEVWLREHYQIEVELSDLYNILCIVSFGDTEREMDLLVKALSELADLHKHGICERSPVSVYVPNIPTLAMSPRDAFYAETEVVPFEDSVGRTIAEFIMVYPPGIPILIPGEIITESNLAYIRENNRAGLPVQGPEDDTFRTLRVIKEHEAIR	not soluble
MSDILKCIGCGAPLQSEDKNKPGFVPEHNMFRDDVICRRCFRLKNYNEVQDVGLESEDFLKLLSGLADKKGIVVNVVDVFDFEGSFINAVKRIVGNKKIILAANKLDLLPKQINKRRVKEWLKRTARKYGLEADDVVLISAEKGWGIDDLLSSIANIRENEDVYIVGTTNVGKSTLINKLIEASVGEKDVVTTSRFPGTTLDMIDIPLDESSFMYDTPGIIQDHQMTHLVSEKELKIIMPKKEIKQRVYQLNEAQTLFFGGLARIDYVSGGKRPLVCFFSNDLNIHRTKTEKANDLWRNQLGDLLTPPGNPQNFDLNELKAVRLETGKEKRDVMISGLGFITIGPGAKVIVRVPKNVDVVLRNSILLEHHHHHH	soluble
MTSVIPEQRNNPFYRDSATIASSDHTERGEWVTQAKCRNGDPDALFVRGAAQRRAAAICRHCPVAMQCCADALDNKVEFGVWGGLTERQRRALLRKKPHITNWAEYLAQGGEIAGV	not soluble
MKQVCVLGNGQLGRMLRQAGEPLGIAVWPVGLDAEPTAVPVQQSVITAEIERWPETALTRELARHPAFVNRDVFPIIADRLTQKQLFDKLGLATAPWQLLTSTDEWSGIFDRLGELAIIKRRVGGYDGRGQWRLRADETGQLPDDCYGECIVERGIHFSGEVSLVGARAHDGSTVFYPLTHNLHQDGILRTSVAFPQANAEQQEQAESMLSAIMQALNYVGVMAMECFITPEGLLINELAPRVHNSGHWTQNGASISQFELHLRAITGLPLPAPVINAPSVMINLIGSELNYDWLKLPLVHLHWYDKAVRPGRKVGHLNLTDSDTSRLSATLEALSPLLPGEYASGIIWAQSKLK	not soluble
